From the supplement of paper PMC7877785
± gives the uncertainty stated by the source.

Assay: self-splicing fitness, log relative to wild type (ln ratio); higher = more splicing; Tetrahymena group I intron in knt gene, E. coli kanamycin selection, DiMSum; sequences stand for … in CUCUCU…GGAGGGAAAAGUUAUCAGGCAUGCACCUGGUAGCUAGUCUUUAAACCAAUAGAUUGCAUCGGUUUAAAAGGCAAGACCGUCAAAUUGCGGGAAAGGGGUCAACAGCCGUUCAGUACCAAGUCUCAGGGGAAACUUUGAGAUGGCCUUGCAAAGGGUAUGGUAAUAAGCUGACGGACAUGGUCCUAACCACGCAGCCAAGUCCUAAGUCAACAGAUCUUCUGUUGAUAUGGAUGCAGUUCACAGACUAAAUGUCGGUCGGGGAAGAUGUAUUCUUCUCAUAAGAUAUAGUCGGACCUCUCCUUAAUGGGAGCUAGCGGAUGAAGUGAUGCAACACUGGAGCCGCUGGGAACUAAUUUGUAUGCGAAAGUAUAUUGAUUAGUUUUGGAGUACUCGUGGUCG
Outline: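 A randomised library covering all eight P1ex-region intron nucleotides was built with the intron in the knt kanamycin-resistance gene on pET-22b(+) and held in E. coli BL21(DE3). Cells were grown overnight at 37°C or 30°C on LB agar, with or without 25 μg/mL kanamycin, plus 100 μg/mL carbenicillin, 50 μM IPTG and 0.2% rhamnose, and pooled colonies were amplicon-sequenced on an Illumina HiSeq 2500. DiMSum fitness is the error-weighted combination of wild-type-normalised replicate fold changes, kanamycin versus none.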

Sequence | self-splicing fitness (ln) (30 °C) | self-splicing fitness (ln) (37 °C)
CCGAAGCAAUAUUACGAAGG | -4.66 ± 0.46 | -2.15 ± 0.27
CCGAAGCAAUAUUACGAAUG | -0.621 ± 0.059 | -0.208 ± 0.076
CCGAAGCAAUAUUACGACCG | -0.936 ± 0.13 | -0.0137 ± 0.17
CCGAAGCAAUAUUACGAGCA | -2.35 ± 0.22 | -2.9 ± 0.36
CCGAAGCAAUAUUACGAGCG | -0.283 ± 0.087 | 0.807 ± 0.1
CCGAAGCAAUAUUACGAUCC | -3.91 ± 0.46 | -2.46 ± 0.45
CCGAAGCAAUAUUACGAUGA | -3.16 ± 0.26 | -2.24 ± 0.19
CCGAAGCAAUAUUACGAUUU | -1.44 ± 0.16 | -2.58 ± 0.24
CCGAAGCAAUAUUACGCAUC | -4.21 ± 0.34 | 
CCGAAGCAAUAUUACGCCCA | -2.41 ± 0.42 | 
CCGAAGCAAUAUUACGCCCG | -0.442 ± 0.13 | 0.42 ± 0.26
CCGAAGCAAUAUUACGCGUG | -3.05 ± 0.14 | -2.56 ± 0.13
CCGAAGCAAUAUUACGCGUU | -4.01 ± 0.16 | -2.4 ± 0.12
CCGAAGCAAUAUUACGCUCA | -3.65 ± 0.33 | -3.47 ± 0.42
CCGAAGCAAUAUUACGGAAC | -2.82 ± 0.28 | -2.03 ± 0.26
CCGAAGCAAUAUUACGGACA |  | -1.57 ± 0.2
CCGAAGCAAUAUUACGGAUA |  | -1.18 ± 0.2
CCGAAGCAAUAUUACGGUGG | -4.27 ± 0.24 | -1.35 ± 0.11
CCGAAGCAAUAUUACGGUGU | -3.91 ± 0.21 | -2.09 ± 0.14
CCGAAGCAAUAUUACGGUUC | -3.74 ± 0.26 | -2.66 ± 0.2
CCGAAGCAAUAUUACGGUUU | -4.44 ± 0.25 | -2.23 ± 0.17
CCGAAGCAAUAUUACGUAAC | -4.94 ± 0.34 | -1.67 ± 0.2
CCGAAGCAAUAUUACGUACU | -3.91 ± 0.27 | -2.39 ± 0.19
CCGAAGCAAUAUUACGUCAC | -3.29 ± 0.35 | 
CCGAAGCAAUAUUACGUCAU | -4.87 ± 0.42 | -3.03 ± 0.33
CCGAAGCAAUAUUACGUGAG | -1 ± 0.065 | -0.698 ± 0.084

Sequence | self-splicing fitness (ln) (30 °C) | self-splicing fitness (ln) (37 °C)
CCGAAGCAAUAUUACGUUAC | -3.03 ± 0.16 | -2.43 ± 0.26
CCGAAGCAAUAUUACGUUAG | -1.97 ± 0.093 | -0.908 ± 0.082
CCGAAGCAAUAUUACGUUGG | -3.26 ± 0.19 | -2.16 ± 0.19
CCGCAGCAAUAUUACGAAAG | -0.925 ± 0.066 | 0.125 ± 0.084
CCGCAGCAAUAUUACGAAAU | -3.66 ± 0.32 | -3.38 ± 0.33
CCGCAGCAAUAUUACGAACA | -2.19 ± 0.27 | 
CCGCAGCAAUAUUACGACCU | -3.36 ± 0.23 | -2.63 ± 0.29
CCGCAGCAAUAUUACGACGC | -3.71 ± 0.35 | -2.74 ± 0.27
CCGCAGCAAUAUUACGACUG | -3.17 ± 0.14 | -1.71 ± 0.13
CCGCAGCAAUAUUACGAGCC | -3.64 ± 0.23 | -2.09 ± 0.2
CCGCAGCAAUAUUACGAGGG | -1.99 ± 0.091 | -2.71 ± 0.19
CCGCAGCAAUAUUACGAGUG | -0.193 ± 0.052 | -0.212 ± 0.069
CCGCAGCAAUAUUACGAUAA | -2 ± 0.19 | -1.2 ± 0.24
CCGCAGCAAUAUUACGAUUU | -3.28 ± 0.14 | -2.22 ± 0.15
CCGCAGCAAUAUUACGCAGG | -2.77 ± 0.11 | -2.93 ± 0.2
CCGCAGCAAUAUUACGCCGA | -2.35 ± 0.19 | -1.42 ± 0.14
CCGCAGCAAUAUUACGGACU | -3.14 ± 0.17 | -2.31 ± 0.25
CCGCAGCAAUAUUACGGAUA | -4.16 ± 0.22 | -2.91 ± 0.23
CCGCAGCAAUAUUACGGAUC |  | -2.39 ± 0.41
CCGCAGCAAUAUUACGGGAA | -4.03 ± 0.28 | -2.71 ± 0.23
CCGCAGCAAUAUUACGGUAA | -3.69 ± 0.27 | -1.99 ± 0.18
CCGCAGCAAUAUUACGGUCG | -0.439 ± 0.053 | 0.0144 ± 0.066
CCGCAGCAAUAUUACGUAAC | -3.86 ± 0.3 | -2.7 ± 0.29
CCGCAGCAAUAUUACGUACG | -0.247 ± 0.058 | 0.254 ± 0.069
CCGCAGCAAUAUUACGUAUC | -4.05 ± 0.28 | -1.91 ± 0.2
CCGCAGCAAUAUUACGUCGU | -4.02 ± 0.17 | -2.79 ± 0.15

Sequence | self-splicing fitness (ln) (30 °C) | self-splicing fitness (ln) (37 °C)
CCGCAGCAAUAUUACGUGUC | -3.88 ± 0.2 | -2.34 ± 0.14
CCGGAGCAAUAUUACGAACA | -2.82 ± 0.41 | -2.9 ± 0.32
CCGGAGCAAUAUUACGACAG | -0.593 ± 0.13 | -0.569 ± 0.14
CCGGAGCAAUAUUACGACAU | -3.816 ± 0.032 | -3.02 ± 0.045
CCGGAGCAAUAUUACGACGA | -0.828 ± 0.23 | -1.07 ± 0.24
CCGGAGCAAUAUUACGAGAG | -2.13 ± 0.22 | -2.33 ± 0.22
CCGGAGCAAUAUUACGAUGA | -2.7 ± 0.23 | -1.37 ± 0.23
CCGGAGCAAUAUUACGCAGU | -3.74 ± 0.28 | -2.13 ± 0.25
CCGGAGCAAUAUUACGCGAU | -3.82 ± 0.27 | -2.62 ± 0.33
CCGGAGCAAUAUUACGCGGU | -3.21 ± 0.16 | -2.96 ± 0.23
CCGGAGCAAUAUUACGCUCG | -3.16 ± 0.28 | 
CCGGAGCAAUAUUACGGACC | -2.12 ± 0.4 | -1.64 ± 0.45
CCGGAGCAAUAUUACGGAUC | -2.42 ± 0.31 | 
CCGGAGCAAUAUUACGGCGC |  | -0.565 ± 0.49
CCGGAGCAAUAUUACGGGUC | -3.5 ± 0.27 | -2.77 ± 0.35
CCGGAGCAAUAUUACGGUCG | -1.22 ± 0.097 | -0.072 ± 0.13
CCGGAGCAAUAUUACGUCUC | -3.22 ± 0.31 | -2.69 ± 0.39
CCGGAGCAAUAUUACGUUGA |  | -2.61 ± 0.36
CCGGAGCAAUAUUACGUUGC | -2.35 ± 0.32 | 
CCGUAGCAAUAUUACGACAU | -3.773 ± 0.027 | -2.94 ± 0.042
CCGUAGCAAUAUUACGACUG | -0.0597 ± 0.12 | -0.95 ± 0.15
CCGUAGCAAUAUUACGAGUA |  | -2.04 ± 0.22
CCGUAGCAAUAUUACGAGUG | -1.07 ± 0.069 | -0.807 ± 0.083
CCGUAGCAAUAUUACGAUAA | -4.17 ± 0.39 | -1.99 ± 0.28
CCGUAGCAAUAUUACGCAAA |  | -2.24 ± 0.25
CCGUAGCAAUAUUACGCCUG | -0.012 ± 0.085 | -0.0205 ± 0.084

Sequence | self-splicing fitness (ln) (30 °C) | self-splicing fitness (ln) (37 °C)
CCGUAGCAAUAUUACGCGGU | -3.13 ± 0.27 | -2.38 ± 0.3
CCGUAGCAAUAUUACGCUCG | -1.1 ± 0.2 | -0.457 ± 0.23
CCGUAGCAAUAUUACGGCAA | -3.49 ± 0.43 | -2.42 ± 0.42
CCGUAGCAAUAUUACGGCAC | -3.83 ± 0.42 | -2.14 ± 0.26
CCGUAGCAAUAUUACGGGAA |  | -2.04 ± 0.31
CCGUAGCAAUAUUACGGGAU | -4.51 ± 0.29 | -2.53 ± 0.2
CCGUAGCAAUAUUACGGGUA | -2.75 ± 0.32 | -2.67 ± 0.36
CCGUAGCAAUAUUACGUGAU | -3.04 ± 0.14 | -2.43 ± 0.18
CCUAAGCAAUAUUACGAAGC | -2.92 ± 0.18 | -1.92 ± 0.28
CCUAAGCAAUAUUACGACAA | -3.28 ± 0.22 | -2.54 ± 0.2
CCUAAGCAAUAUUACGAGAG | -2.31 ± 0.17 | -1.23 ± 0.13
CCUAAGCAAUAUUACGAGCA | -2.92 ± 0.3 | -3.08 ± 0.35
CCUAAGCAAUAUUACGAGGG | -3.2 ± 0.17 | -3 ± 0.35
CCUAAGCAAUAUUACGAGUC | -3.77 ± 0.22 | 
CCUAAGCAAUAUUACGCGAU | -3.49 ± 0.24 | -2.31 ± 0.27
CCUAAGCAAUAUUACGCGUA | -1.88 ± 0.25 | -2.19 ± 0.33
CCUAAGCAAUAUUACGCUAC |  | -1.53 ± 0.31
CCUAAGCAAUAUUACGCUCU | -2.4 ± 0.14 | -2.94 ± 0.3
CCUAAGCAAUAUUACGGACC | -3.02 ± 0.49 | 
CCUAAGCAAUAUUACGGCGG | -3.12 ± 0.17 | -2.79 ± 0.2
CCUAAGCAAUAUUACGGCUC | -3.13 ± 0.23 | -1.56 ± 0.21
CCUAAGCAAUAUUACGGGUG | -2.47 ± 0.077 | -1.11 ± 0.073
CCUAAGCAAUAUUACGGUCA | -3.95 ± 0.37 | -3.01 ± 0.2
